This series is described as follows: protease stability score; higher = more stable; yeast display proteolysis, trypsin and chymotrypsin.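 Note: log10 excess protease needed over predicted unfolded state with 0 meaning unfolded.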
“DEKEIRKLLETMLKAFVNGNLEVVRKMLKDDGEVEYLDTRRHGPDRAVELVKRLLDLGYEVEYKEVHVKGDTVTANVEANADGKTVRFQVTYQARGRRVDNFKVKYDEDAQKVIKHG” yielded a protease stability score of 1.79.
“DEKEIRKLLQKMAKMFEEGNNEELRKLGDDDLQVTYGDEEYKGPDDLVKVLETVKKLGAKVEYKEVHVEGDTVTVKVEAEMGGRKARYKVKYQADGNKVKRFQVEYSEDAQKAIKEG” had a protease stability score of 1.28.
In turn, “DEKEKAEDFMRKMQKIAKTNNPTELDDQFDEDAKLVVGDKRYHGRKQMQKHYKELRKRVDHFRLEVKRIDVSGDKVRFDAKYEADVNGRRETVDMRFVVRRVGDKDRAENAQWK” came in with a protease stability score of 0.285.
Next, “DEKEKAKKMFEKWHDVWRTNDPKKMNELADKDARINVGEKNYHGREHVEKIWRDLMERIDHVQLRVQTITSTGDKVEIRATVVIDHNGKQDEDTYVYVFQIDNGTVSFVQVRQS”: 0.576.
To “DEKEKLKQLARKFHKAMQTGDEDELKKNVDENVRADYGDRRYHGSEELAKWLREMKTKVDHLSMTIKDIRVKGDRAEIELEMTFDHNGRQETRQFTLQAQVHNGSLKIVQIRQS” belongs 1.32; to “DEKELKKVLERLVKAFKNGNTEEAKKLGKDDVQVEYGDEKYEGPDAMRTVLERVKKLGYEVEYKEEHYKGDTVTVKVEANLGGRTAKFRFQYQVQGQRVDKVKVEYSETAQKQIKHG”, -0.106.
To “DEKELKKVLKTVVEYLKNGKAERVVKHLHDDVQVIYDDEEVHGADKFKEMVEKFQKLGYKVEYKEVHVEGDTATVKVQVDAGGETAEFHVTYQATGQKVDRMEVKYDERAQKVIKHG” belongs 1.14; to “DEKELNDLKRVVRHGDEDRLEELMDEDVRMKVGNKEISGRSHAVKVMKKLNEKADHIEIKDIKISGEKVVVDLVFEVNGTKIKMRLIIVVRNGKIKHAQIEVTDEEVEDNLHKFLD”, 0.972.
The sequence “DEKELQKVLQKVMKLFQNGNIEELQKVVKDDVQLRYADKEYHGPDAVKTVVKRYRDLGAKVEYDELHVEGDKATAKVRADYGGTTVRMKVTYKVTGQKVDRMQVKYDEKAQKQIKHG” had a protease stability score of -0.142.
Next, “DEKEMQEFAKEVVKMLQTGDERKNERNVDKDVRVKIGEKVLHGREDNSKWIQEWRDRVDHIRIDHVHVHGEKVIVTVTAVVNGVEVEFQMVMEVHNGRAENVQVKYRNPDELRRFKS”: -0.263; “DEKENKKLATELNQNLQTGDPDKLARLADPNARAQYGETTYHGRSQIKTMWETLSRQVDNVELKHMHVQGNEVEVVLTFNVNGKEYELRITASFKNGRLKDLQIDPDEIQRAEK”: 0.4.
Next, “DEKEQADDAVRQLESAFNQGDWKKLADLFDENARVQYGDKELHGRQKWTTLVRDMEREHDHVEARVKSVHYHNGKIHLKIEIKAETNGRTTSVHVRYVAVVTNGRVEFENAKYS”: 0.973; “DEKEQEDFARSFIEAFRTNDPSQIKTLMDEEATVSVGDKTYHGRKAAEDWATQLKEEVDHIDVKDLKVHNGHIEIEVRLKVNGHTRDYLISIQFHNGRVKRMSVSKQ”: -0.432.
Next, “DEKEQEVLDRFMRALRTGNPDDADKNVDKDVNVRYGDRTIKGRESFHEEIRREHQEIRLDYRSVNNQVHNGQANVDVDAIWNVNGRPHRVKVHIRAQIHDGRIKHQRFRMDPEEKKRVDS”: 0.054; “DEKEQKENAKKMADAIERGDPDKLSELMDENAKVTVGDKTIHGRRQAHEWLKEFRDQADHVEIKEFTVNGNRVIIHVKVRHNGSESERVMTVSWHNGKVKSASFRSN”: 0.63.
The sequence “DEKEQTDILLRAMQILTHGDEKRFEELADPNVHVDVGDKTVHGRTQARKWYHDLRRQVDRIHIKHVTVKNGRATIDVVFDRNGRKEKMVLVIQAHNGKIKRAKVEES” had a protease stability score of -0.125.
Next, “DEKESADRMIQRLQELMDQNNEEEIKNEVDENARAVVGDKEYHGDEQFAKALITVVKQYDHISIQIRSFTHTNGKNVATFEATFHHNGKNDTVKIEVVFDEVNGRHNLVRLVMK”: 1.22; “DEKETHKVLEKIEKVLHNFNIDEAKKVLKDDVRVQYLDEEYHGPDAAEKRLTKVKKLGAQVEYKEAHVEGNRVKAKVQVNVGGRTLEFTVEYTAKGHKVDEFRVQYDEDAQKTIKHG”: 0.76; “DEKETKKVLEQAAKLFVNGDVHRVMQLGADDVEVEYGDERYHGKDAAKRVIEKHQKLGIKVEYDELHVEGDRVKAKVRADQAGTTAHFTFEYKATGQRVDKMRVKYDETAQKMIKHG”: -0.23.
“DEKETKKVLERIVKIFENGNAEEAKKMGKEDVEVEYGDETKHGPDALYEFIEKMKKLGAKVEYKEVHVEGDKVTVRIQADYGGRRAEMHVTYQATGNRVDNVKLKYSKTAQEMIKHG” gave a protease stability score of 0.084.
Regarding “DEKETQKLLEKLAKYFVNGDLEKVKKVGKEDVEVEYGSERKHGPDAMKEHVETHKRLGIEVRYEEVHVEGDTVTAKVQADVAGHTAEMTVVYQAQGRRVDKVKLKYSEKAQKAIKHG”, the protease stability score is -0.133.
Next, “DEKETRKLLKDVAEAFENGNNEEIKKLLKDDVEVQYADKRVHGPDQVVEMVKKYQDLGAKVEYKKLDVRGDTVTVDVQADLGGRTAEFKVTYQAQGQKVDRFKVKYDETAKKLIKHG”: 0.22; “DEKEVATRFVKTVVEILRRGNPDDWMKLVDPNATAHYGDKTYHGREELKTLMEDRNRHADRIDVDVKSYDAHNGKVQVHVVVVQTHNGRSTTHEVRIVADLHNGDAKIRSIQEQ”: 0.713; “DEKEVKDADKEMERLMKKNDFQHIVDQMDPNAKIIVGDQDLHGKEEAEKVAQEMDKQIDSIEVKSVHAHGDKAVVHFVNHHNGRNKRVVITLRWSNGRIQEMQIQDQ”: -0.157.
To “DEKEVKDNAHDLFRAMQTGDEQEIENLMDENVEAQVGDTTWHGREEAARELVLTQKRYDRVRVDRIQVTGEDVKIDFKLNIDGTKETHILVMRVHNGKIVSMSNETR” belongs 1.51; to “DEKEVQKVLETMAKMFVNGNNEEVKKLGHDDIQVQYGDEEKHGPDAMVDFIKKYQDLGAEVEYKHLKVEGNEVEVDVEATLGGKTVRYKVKYEATGHKVHRVEVKYTDEAKDAIKKG”, 0.657.
Take “DEKEYAEQFFRHMEEIYQNGDEDRAQELFDPNARMEVGDKEVHGNEKFREEIHKIKETSDRFSIRVKEIDVHGDKIVVEAERSFEHNGQRRSEVYTVRMVIENGQAKIKSAHHK”: the protease stability score is 0.235.
On to “DEKFKEAVERFIKALQDNNHKEMKDNADPNVKAQVGDSEVHGMDEMLRQLYKRYQELRVSYKHLSITVRGDKVEIRASVKLVHNGTPTEREVSVEVEAKNGRIKSMRINNTK”, for which the protease stability score came out at 0.493.
Next, “DEKHAHKIVRAWSQGDPDQLAELADPNVRLVVGDKTYDGRESFVKWLKDLRKRIDHVRVDSVKINGNKIEIDMRFQVDGVHLVVTVDIEFKNGKIKDVRIQYRDEEQLKDIKKVVR”: 1.2; “DEKHAQHAAEIAEQGDPDEWEELADKDVKVDIGDQRVHGREQASSFWRKLREQADTIEYKSYRVDNGRVQLDFVVDINGHRLEFTLRFVVDNGRITEMEVQARDERQNEELKKIDS”: 0.524; “DEKHDAKRVWETILNQLRRGDSEEFMKLADKDVKIEYGDKTIHGREDLKSWMNERQKDYDHLDADLTHMDVQGEDVNVTYTDRAKHNGTEHHRTVQAVFRVHNGRLRLQSWYHS”: 0.494.
To “DEKHLERQVDHFLDALHRGDEDEAVNLADPDVEFQVGDRTYHGKEQLKEWLKRLVDRVDHVDIKNITVSGDKVEVHADFSVDGRKETMTFTVRAHNGRIKHMTIDKG” belongs 1.27.
To “DEKHVKKVVDRVLDALEKKNKDELVKLVKPDVEFHVADTKFEGTDQLHKYYDKVFRKGVEFHVKEVKVEGNKAQVRYDVRAGGHQETVQFEVTVKDERVDRARAEMTEKYKKLVTKG” belongs 0.086; to “DEKHYKKVLKRVLDYFMKGNKEQVKKIAKPDVEFHAGKMKIEGTDHLAKYYEKLQRKGVKLEIKEQHVTGDTVEVKYELEVGGTKVTVKATLKVKDDKVDKAEAKNDDDYHKRVKKG”, 0.117.
